The Human Domainome abundance scans (Beltran et al. 2025)
± gives the uncertainty stated by the source.

B1: RUN and FYVE domain-containing protein 1, residues 639 to 698; numbered along this chain, Q96T51 (parent)
chain: WLKDDEATHCRQCEKEFSISRRKHHCRNCGHIFCNTCSSNELALPSYPKPVRVCDSCHTL
B2: POU domain, class 3, transcription factor 2, residues 262 to 338; numbered along this chain, P20265 (parent)
chain: EDTPTSDDLEQFAKQFKQRRIKLGFTQADVGLALGTLYGNVFSQTTICRFEALQLSFKNMCKLKPLLNKWLEEADSS

Variants of: B1
Assay: abundance fitness (aPCA) (normalised: wild type 0, dead -1); higher = more abundant; growth selection in yeast, the domain comes from the species named
Conditions: Homo sapiens

| Variant | abundance fitness |
| --- | --- |
| T59N | -0.058 ± 0.081 |
| T59I | -0.033 ± 0.059 |
| T59V | 0.127 ± 0.046 |
| T59Q | 0.328 ± 0.076 |
| T59F | -0.207 ± 0.089 |
| T59M | 0.019 ± 0.049 |
| T59H | -0.148 ± 0.096 |
| T59A | 0.263 ± 0.042 |
| T59L | -0.048 ± 0.04 |
| T59G | 0.161 ± 0.038 |
| T59Y | -0.183 ± 0.06 |
| T59E | 0.026 ± 0.087 |
| T59P | -0.281 ± 0.068 |
| T59S | 0.052 ± 0.041 |
| T59K | 0.144 ± 0.14 |
| T59C | -0.051 ± 0.052 |

Variants of: B2
Assay: as above
Conditions: Homo sapiens

| Variant | abundance fitness |
| --- | --- |
| D7E | -0.087 ± 0.13 |
| S56M | -0.81 ± 0.15 |
| S56T | -0.135 ± 0.041 |
| T26A | -0.417 ± 0.045 |
| T26I | -0.635 ± 0.14 |
| C61P | -0.779 ± 0.086 |
| C61V | -0.035 ± 0.03 |
| C61W | -0.158 ± 0.03 |
| L71I | -0.422 ± 0.37 |
| L71K | -0.559 ± 0.2 |
| L71Y | -0.168 ± 0.17 |
| E51Q | -0.803 ± 0.12 |
| E51R | -0.638 ± 0.049 |
| F50I | -0.675 ± 0.12 |
| F50R | -0.886 ± 0.055 |
| A13E | -0.645 ± 0.11 |
| A13Y | -0.845 ± 0.17 |
| S76D | 0.042 ± 0.048 |
| S76P | -0.012 ± 0.044 |
| S76Y | -0.14 ± 0.068 |
| V41A | 0.017 ± 0.039 |
| V41H | 0.039 ± 0.16 |
| V41G | 0.021 ± 0.029 |
| V30T | -0.501 ± 0.083 |
| V30A | -0.23 ± 0.046 |
| V30Y | -0.652 ± 0.26 |

| Variant | abundance fitness |
| --- | --- |
| W70K | -0.814 ± 0.12 |
| W70Y | -0.381 ± 0.099 |
| Q27L | -0.167 ± 0.035 |
| Q27Y | 0.084 ± 0.17 |
| Q27T | 0.04 ± 0.044 |
| Q15P | -1.08 ± 0.23 |
| Q15W | -0.033 ± 0.034 |
| K14I | -0.267 ± 0.23 |
| K14A | -0.008 ± 0.05 |
| K14T | -0.121 ± 0.087 |
| K69T | -0.02 ± 0.08 |
| K69S | -0.146 ± 0.1 |
| K69E | -0.231 ± 0.1 |
| G24S | -0.646 ± 0.049 |
| G24I | -0.94 ± 0.14 |
| P4K | 0.063 ± 0.052 |
| P4M | 0.068 ± 0.053 |
| L67C | -0.504 ± 0.23 |
| D2I | 0.023 ± 0.084 |
| D2E | -0.047 ± 0.033 |
| D2S | 0.013 ± 0.04 |
| D2Q | 0.054 ± 0.039 |
| Y38L | -0.41 ± 0.043 |
| Y38M | -0.331 ± 0.052 |
| G35Y | -0.155 ± 0.076 |
| G35T | 0.052 ± 0.038 |

| Variant | abundance fitness |
| --- | --- |
| K64L | -0.131 ± 0.037 |
| Q44G | 0.019 ± 0.025 |
| Q44A | 0.033 ± 0.031 |
| K58V | -0.113 ± 0.039 |
| N40Q | 0.069 ± 0.043 |
| N40I | -0.045 ± 0.096 |
| N40W | -0.281 ± 0.049 |
| R49F | -0.694 ± 0.18 |
| G39A | -0.314 ± 0.033 |
| G39Y | -0.533 ± 0.16 |
| G39C | -0.528 ± 0.069 |
| G39T | -0.325 ± 0.047 |
| G39W | -0.715 ± 0.064 |
| G39I | -0.808 ± 0.21 |
| L55T | -0.583 ± 0.069 |
| Q54H | -0.2 ± 0.063 |
| Q54K | 0.045 ± 0.055 |
| Q54E | -0.03 ± 0.045 |
| K17L | -0.597 ± 0.044 |
| K17D | -0.949 ± 0.12 |
| K17F | -0.9 ± 0.2 |
| L37N | -0.121 ± 0.066 |
| L37Q | -0.027 ± 0.044 |
| L37Y | -0.157 ± 0.089 |
| M60C | -0.386 ± 0.074 |
| M60Y | -0.624 ± 0.15 |

| Variant | abundance fitness |
| --- | --- |
| L32S | -0.197 ± 0.14 |
| Q18C | -0.157 ± 0.044 |
| Q18H | -0.193 ± 0.093 |
| Q18T | -0.029 ± 0.051 |
| A74P | -0.274 ± 0.068 |
| K22Y | -0.3 ± 0.093 |
| L66M | -0.015 ± 0.042 |
| L66Q | -0.233 ± 0.046 |
| S6E | -0.038 ± 0.032 |
| N68D | -0.182 ± 0.12 |
| T36F | -0.342 ± 0.11 |
| S43Y | -0.486 ± 0.12 |
| G31H | -0.287 ± 0.084 |
| G31C | -0.009 ± 0.042 |
| T45G | -0.097 ± 0.026 |
| T45Y | -0.338 ± 0.097 |
| F57C | -0.516 ± 0.068 |
| F42N | -0.582 ± 0.15 |
| F42K | -0.148 ± 0.043 |
| E1P | 0.085 ± 0.28 |
| E1F | 0.231 ± 0.27 |
| E1Q | -0.088 ± 0.12 |
| E72W | -0.177 ± 0.043 |
| D29K | -0.26 ± 0.046 |
| D29V | -0.607 ± 0.044 |
| F25H | -0.266 ± 0.091 |

| Variant | abundance fitness |
| --- | --- |
| F25M | -0.107 ± 0.046 |
| F25K | -0.072 ± 0.053 |
| F25P | -0.837 ± 0.15 |
| C48L | -0.152 ± 0.034 |
| C48G | 0.022 ± 0.025 |
| L63Q | -1.03 ± 0.18 |
| D8Y | -0.41 ± 0.14 |
| D8E | 0.079 ± 0.041 |
| A33T | -0.113 ± 0.068 |
| A33L | -0.304 ± 0.041 |
| K62H | -0.156 ± 0.06 |
| K62N | -0.151 ± 0.068 |
| T5H | -0.079 ± 0.064 |
| T5R | -0.082 ± 0.027 |
| T5Q | -0.082 ± 0.041 |
| T5E | -0.144 ± 0.039 |
| I47C | -0.763 ± 0.097 |
| I47K | -0.701 ± 0.085 |
| I47F | -0.787 ± 0.2 |
| I47M | -0.58 ± 0.065 |
| L34W | -0.973 ± 0.1 |
| I21Q | 0.005 ± 0.04 |
| I21L | -0.015 ± 0.03 |
| L9E | -0.797 ± 0.093 |
| L9Y | -0.457 ± 0.083 |
| L9Q | -0.53 ± 0.061 |

| Variant | abundance fitness |
| --- | --- |
| A28R | -0.058 ± 0.028 |
| A28C | -0.165 ± 0.048 |
| S77N | -0.169 ± 0.11 |
| S77V | 0.008 ± 0.042 |
| S77G | 0.061 ± 0.036 |
| E73T | 0.089 ± 0.073 |
| E73C | 0.024 ± 0.12 |
| E73A | -0.145 ± 0.081 |
| T3E | -0.218 ± 0.043 |
| T46E | -0.035 ± 0.037 |
| T46V | -0.115 ± 0.031 |
| T46M | -0.185 ± 0.041 |
| T46C | -0.317 ± 0.061 |
| R19S | -0.187 ± 0.039 |
| R19T | -0.049 ± 0.047 |
| N59H | 0.017 ± 0.065 |
| N59T | -0.051 ± 0.043 |
| N59A | 0.007 ± 0.037 |
| N59S | -0.001 ± 0.039 |
| P65R | -0.182 ± 0.051 |
| P65W | -0.201 ± 0.092 |
